The data set deals with T1, CrsR (response regulator of CrsRK) (Actinosynnema pretiosum X47), ORF:a04a2703.
T1 sequence: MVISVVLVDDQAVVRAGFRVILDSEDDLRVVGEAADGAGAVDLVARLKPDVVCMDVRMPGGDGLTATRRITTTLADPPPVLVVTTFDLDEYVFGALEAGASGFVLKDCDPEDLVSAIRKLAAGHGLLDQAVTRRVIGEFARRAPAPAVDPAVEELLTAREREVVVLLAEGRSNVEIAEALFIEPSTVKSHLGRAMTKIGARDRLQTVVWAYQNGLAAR
Nature of the data set: EMSA. To be noted: EMSA: 50-100 fmol probe, 0.5-1 ug CrsR, binding buffer with poly(dI-dC) (salt and pH not stated), 20 min at room temperature, 8% native PAGE; protein dialyzed ….

From paper PMC12623338 come the findings set out here.

Consider “ACTCGGTCGCCGTGGTCATGGCTACAGCCAACAACCTCGACCATGGTGGAGGTCAACAGTAAGGTTGAGCTGGTGAGCAAGTTGCCGGAGATGTTGACCATCGGCCAGGTCGCCGAGCGCAGCGGGGTGCCCCACACGGCGCTGCGGTTCTACGAGGAGCGCGGGCTGATCGCCTCGGAGCGCACGGCGGGCAACCAGCGCCGCTACCCCAGGCACGTGCTGCGCAGGCTCGCGTTCATCCGCACCGCGCAGCGGGTCGGGCTGAGCCTGGAGGAGGTGCG (double strand) [asm13 promoter probe (asm13-15, asm10-12)]”, for which the binding entry is reported as “no binding”.
For the sequence “CCGGTTCCCGTTCATCCAATTGTGCGCACGACCGCGCCGCCGTGCCCGCGTGCTGCGGTGATGGCCTGGGAACAGGGGGGATTAGGGGGAGGTCAAGGGGGTTGGTCGGGATCTGCGGAATCGGTAGCGTCGAATTCCGAAAGCCGGCCGCGGTGAATTCCCCCGCGCCATTTCCGCGAACGACGGGACAGGGGCTCATGGGCA (double strand) [asm43 promoter probe (asm43-44)]”, the binding result was “binds”.
As for “CGGACAGACCGATCCCCGAGTCGTGCGGGCCCGAGCCGTGGACGCGCGGGCCGTGGACGCGCGAGCCGCGACCGCCGCCCCCACGACCGCCGCCCCCACGACCGCCGCTCCGGCGACCACTGCTCCGGCGACCGCCGCTCCGGCGACCGCCGCTCCGGCGACCGCCGCTCCGGCGACCGCCGCCCCCACGACCACTCCTCCGCGCCCCCGCGTCCCCCAGGCCCCCGCGCCCCACCGGCACGTTCCGGGCGCGACCTACGACCGGGCCGTGCTGTTCGACCTCGACGGG (double strand) [asm45 promoter probe (asm45-47)]”, the entry is “binds”.
“CGGTCCACCAGCCGCATCCCTCGCCTCCCCCGCGTCCGCCCCGCCGACCTTCAGGCATGTCAACAGCCCTGTCAGTCGTCTTGTCCACGCCCCGACCACCGCACCCCCACTGGCCGCCCACCCGCGCCGGGAAAACCACGAAGTCCCCTGCCGCGCGGGCGTCCCAGGTCGGACACTCCTGAGCGCACCCCCGCACCCGTTCCAGGAGGC (double strand) [asm7 promoter probe]”: the binding result is given as “no binding”.
Next, “GGAGGGACGAGCGGAGACCGGGTCGCGGGACTCCACTTCGGACGGTAGGGCACGCGGGCGCCGTTGGCAGTTGCCGCTTCCACGGCTGGCGAACAAAGCGGTAATCCCTTGCGCCACAGGCGATTGACACCCCGGCGAGGCCCTGGTTTCACTGCTGTCCGCACGTCACCGGCGCGAGGAGGCCCCCGTGAAGTACATGCTGCTCATCCAC (double strand) [asm21 promoter probe]”: “binds”.
On to “GGTCGGGCACCAGGAACACCTCGCAGAGCGCAAAGACGTGAGTGGACGGTGCGATTGTGCTGACGGCCTGACCCCGGTGGTGGGGACCGCGGCGAACCGGCTGAACGCAGGGGGGACCTAGGGGGGCGTCAGGGGGTTGGGGGGCTCTTCCGGCCGCCGTTAGCTTCGGGCCGCGCACCGGCCCCCGGAGAGCGCGCCGGACCGAGAGCAGAGACGAGGGCGACCGACCGTGCACCTGAAGGCCCCGCAGAAGCT (double strand) [asm24 promoter probe]”, for which the binding result is listed as “no binding”.
Next, “TGACGGCGTCGGGTGAGGCCGCCGCTGGCCCTGGGACGGCGCTGCGCGCCCCCTCGGACCCACCGGAGCCGCCACCACCGCTTGTCCCCTTCCACCGGGTGGGGCGCGGTCGGTAATCCGGCGGCAATTCCTTCCCCCGTCCGGGCTAGCCAGGCCCGTGCGCCCGCGTCGCGCACGGGCCAAGGTGGGTGGCTGCGCGGATGACCGGGCCCCCGAACCGGATGTGGGAGAGATGCTGCGAAGCGAC (double strand) [asmA promoter probe]”: “no binding”.
